The target of experiment [1] is ICP27Δ215 (HSV-1 ICP27 residues 215-512) (Herpes simplex virus 1 (HSV-1)) (UniProt P10238). Nature of the experiment: AUC; sedimentation velocity, 1 mg/mL in 20 mM HEPES pH 7.4, 150 mM NaCl, 40000 RPM, 20 °C.
For experiment [2] the target is unchanged. Put plainly: SEC-MALS; 0.5 mL at 1 mg/mL on Superdex 200 10/300GL, 0.75 mL/min in gel filtration buffer (20 mM Tris, 150 mM NaCl, 50 mM L-Arg, 50 mM L-Glu, 50 mM L-Pro, 0.1 mM TCEP, 10 μM ZnCl2, pH 8.5). In general terms: Size exclusion chromatography separates by hydrodynamic size, large species first.
The target in experiment [3] is ICP27Δ189 (HSV-1 ICP27 residues 189-512) (Herpes simplex virus 1 (HSV-1)) (UniProt P10238). Put plainly: AUC; sedimentation velocity, 1 mg/mL in 20 mM HEPES pH 7.4, 150 mM NaCl, 40000 RPM, 20 °C.
Experiment [4] has the same target. Nature of the experiment: SEC-MALS; 0.5 mL at 1 mg/mL on Superdex 200 10/300GL, 0.75 mL/min in gel filtration buffer (20 mM Tris, 150 mM NaCl, 50 mM L-Arg, 50 mM L-Glu, 50 mM L-Pro, 0.1 mM TCEP, 10 μM ZnCl2, pH 8.5).
The target of experiment [5] is ICP27Δ241 (HSV-1 ICP27 C-terminal residues 241-512) (Herpes simplex virus 1 (HSV-1)) (UniProt P10238). Nature of the experiment: AUC; sedimentation velocity, 1 mg/mL in 20 mM HEPES pH 7.4, 150 mM NaCl, 40000 RPM, 20 °C.
The target is the same in experiment [6]. Put plainly: SEC-MALS; 0.5 mL at 1 mg/mL on Superdex 200 10/300GL, 0.75 mL/min in gel filtration buffer (20 mM Tris, 150 mM NaCl, 50 mM L-Arg, 50 mM L-Glu, 50 mM L-Pro, 0.1 mM TCEP, 10 μM ZnCl2, pH 8.5).

By stoichiometry N is commonly meant a count of units in the complex or per binding partner.

Regarding “ICP27Δ215 (HSV-1 ICP27 residues 215-512) (from UniProt P10238 215-512) (domain or fragment)”, the stoichiometry N in experiment [1] and in experiment [2] was 2 in each case.
For “ICP27Δ189 (HSV-1 ICP27 residues 189-512) (from UniProt P10238 189-512) (domain or fragment)”, the stoichiometry N in experiment [3] and in experiment [4] was 2 in each case.
On to “ICP27Δ241 (HSV-1 ICP27 C-terminal residues 241-512) (from UniProt P10238 241-512) (domain or fragment)”, for which the stoichiometry N in experiment [5] and in experiment [6] was 2 in each case.

The record behind these values is publication PMC4650695.
